# Laboratory results published in patent publication US20200354457A1 (Hoffmann-La Roche, published 2020).
# Several values for one entry are separate records, joined by “and”; a condition that tells them apart may be missing. Equal entries are not always repeated.
# B1: bivalent P11A2 aVH-Fc (Fc fusion)
# chain: EVQLVESGGGLVQPGGSLRLSCAASSFNIKDTYIGWVRRAPGKGTELVAEIACHEGTTRYADSVKGRFTISCDTSKNTAYLQMNSLRAEDTAVYYCANTEYDDIFDYWGQGTTVTVSSGGGGSGGGGSDKTHTCPPCPAPEAAGGPSVFLFPPKPKDTLMISRTPEVTCVVVDVSHEDPEVKFNWYVDGVEVHNAKTKPREEQYNSTYRVVSVLTVLHQDWLNGKEYKCKVSNKALGAPIEKTISKAKGQPREPQVYTLPPSRDELTKNQVSLTCLVKGFYPSDIAVEWESNGQPENNYKTTPPVLDSDGSFFLYSKLTVDKSRWQQGNVFSCSVMHEALHNHYTQKSLSLSPGK
# B2: control antibody MDX25F7 (antibody, V domains shown)
# VH: QVQLQQWGAGLLKPSETLSLTCAVYGGSFSDYYWNWIRQPPGKGLEWIGEINHNGNTNSNPSLKSRVTLSLDTSKNQFSLKLRSVTAADTAVYYCAFGYSDYEYNWFDPWGQGTLVTVSS
# VL: EIVLTQSPATLSLSPGERATLSCRASQSISSYLAWYQQKPGQAPRLLIYDASNRATGIPARFSGSGSGTDFTLTISSLEPEDFAVYYCQQRSNWPLTFGQGTNLEIK
# Experiments:
# [1] = target: T1, murine LAG3-Fc antigen (R&D Systems, 3328-L3-050) (murine, UniProt Q61790 24-442); assay: ELISA using murine LAG3-Fc antigen
# T1 construct: Bought reagent
# T1 sequence (looked up): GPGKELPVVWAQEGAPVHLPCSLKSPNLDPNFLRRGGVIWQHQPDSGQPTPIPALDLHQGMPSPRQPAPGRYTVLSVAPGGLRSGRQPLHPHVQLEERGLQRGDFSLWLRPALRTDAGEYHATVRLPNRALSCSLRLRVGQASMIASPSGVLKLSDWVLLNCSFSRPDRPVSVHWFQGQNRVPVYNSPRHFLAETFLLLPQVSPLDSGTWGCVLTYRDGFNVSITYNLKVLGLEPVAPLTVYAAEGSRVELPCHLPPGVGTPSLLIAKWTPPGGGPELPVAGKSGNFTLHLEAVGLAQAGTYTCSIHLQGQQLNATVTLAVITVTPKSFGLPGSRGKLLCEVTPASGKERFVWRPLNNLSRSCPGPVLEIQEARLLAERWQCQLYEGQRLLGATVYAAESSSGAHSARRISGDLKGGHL
# [2] = target: T2, human LAG3 on recombinant CHO cells (human, UniProt P18627 23-525); assay: cell ELISA on CHO cells expressing human LAG3;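 further: bivalent Fc-format binders titrated in threefold steps from 6 µg/mL, incubated with the cells 2 h at 4 °C, bound antibody detected by HRP-coupled anti-human IgG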
# T2 construct: whole, on cells; also called Lag3 cells; recombinant CHO cells expressing Lag3
# T2 sequence (looked up): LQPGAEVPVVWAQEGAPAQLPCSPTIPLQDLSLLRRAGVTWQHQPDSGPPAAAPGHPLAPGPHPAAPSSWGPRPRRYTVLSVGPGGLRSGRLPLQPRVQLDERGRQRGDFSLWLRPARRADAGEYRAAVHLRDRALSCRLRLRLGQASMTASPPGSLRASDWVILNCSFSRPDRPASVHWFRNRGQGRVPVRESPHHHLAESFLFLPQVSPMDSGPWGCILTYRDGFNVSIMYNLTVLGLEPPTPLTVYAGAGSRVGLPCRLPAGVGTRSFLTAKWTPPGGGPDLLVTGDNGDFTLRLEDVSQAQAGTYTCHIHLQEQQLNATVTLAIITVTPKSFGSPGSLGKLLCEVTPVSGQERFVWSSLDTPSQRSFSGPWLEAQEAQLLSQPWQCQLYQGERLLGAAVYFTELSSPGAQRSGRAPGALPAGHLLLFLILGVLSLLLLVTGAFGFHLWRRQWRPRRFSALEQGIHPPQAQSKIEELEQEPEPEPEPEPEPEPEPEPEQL
# [3] = target: T3, recombinant human LAG3 Fc Chimera Protein (R&D Systems, 2319-L3) (human, UniProt P18627 23-450); assay: ELISA, plate coated with human LAG3 Fc chimera
# T3 construct: Bought reagent
# T3 sequence (looked up): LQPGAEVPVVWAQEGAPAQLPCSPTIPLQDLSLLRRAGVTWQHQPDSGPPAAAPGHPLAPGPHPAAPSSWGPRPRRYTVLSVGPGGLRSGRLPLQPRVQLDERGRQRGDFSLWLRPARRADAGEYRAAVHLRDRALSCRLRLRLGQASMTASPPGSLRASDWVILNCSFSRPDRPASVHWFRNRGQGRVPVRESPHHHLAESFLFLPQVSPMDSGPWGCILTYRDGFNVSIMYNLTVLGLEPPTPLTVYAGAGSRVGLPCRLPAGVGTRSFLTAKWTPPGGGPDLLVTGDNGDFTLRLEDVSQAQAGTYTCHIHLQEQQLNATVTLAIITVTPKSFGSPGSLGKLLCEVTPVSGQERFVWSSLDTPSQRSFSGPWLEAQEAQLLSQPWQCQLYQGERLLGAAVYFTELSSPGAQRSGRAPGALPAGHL
# [4] = target: T3, recombinant human LAG3 Fc Chimera …; assay: SPR (Biacore), aVH-Fc captured by anti-human Fc, human LAG-3 Fc chimera as analyte, 25 C
# [5] = target: T4, soluble human Lag3-IgG1-Fc with biotinylated C-terminal Avi-tag (human, biotin on the C-terminal Avi-tag); assay: A375 MHCII competition ELISA, biotinylated Lag3 250 ng/ml; competitor MHCII on A375 cells
# T4 construct: also called LAG3-Fc-avi; biotinylated LAG3-Fc antigen
# [6] = target: T3, recombinant human LAG3 Fc Chimera …; assay: SPR (Biacore), aVH-Fc captured by anti-human Fc, human LAG-3 Fc chimera as analyte, 25 C; * poor fit
# [7] = target: T4, soluble human Lag3-IgG1-Fc with …; assay: A375 MHCII competition ELISA at 3 µg/ml, biotinylated Lag3 250 ng/ml; competitor MHCII on A375 cells
# [8] = target: T3, recombinant human LAG3 Fc Chimera …; assay: SPR (Biacore), antibody captured by anti-human Fc, human LAG-3 Fc chimera as analyte, 25 C
Binder,binding result [1],EC50 [2],OD max [2],OD max [3],t1/2 [4],IC50 [5],koff [6],% Inhibition [7],EC50 [3],koff [8],t1/2 [8]
B1,no binding,0.0169 µg/mL and 0.2 nM,1.2 OD,1.3 OD,2.4 min,0.0903 µg/mL and 1.2 nM,0.0048 s⁻¹,92.4%,,,
B2,,,2.06 OD,3.39 OD,,0.127 µg/mL and 0.8 nM,,90.4%,0.0031 µg/mL and 0.02 nM,0.00039 s⁻¹,30 min
